Measured values from patent USRE47150 (Bayer, dated 2018).

T1: human tissue factor pathway inhibitor (TFPI) (human, UniProt P10646 29-304, limits assumed)
T1 construct: bought; also called hTFPI; human TFPI
T1 sequence (looked up): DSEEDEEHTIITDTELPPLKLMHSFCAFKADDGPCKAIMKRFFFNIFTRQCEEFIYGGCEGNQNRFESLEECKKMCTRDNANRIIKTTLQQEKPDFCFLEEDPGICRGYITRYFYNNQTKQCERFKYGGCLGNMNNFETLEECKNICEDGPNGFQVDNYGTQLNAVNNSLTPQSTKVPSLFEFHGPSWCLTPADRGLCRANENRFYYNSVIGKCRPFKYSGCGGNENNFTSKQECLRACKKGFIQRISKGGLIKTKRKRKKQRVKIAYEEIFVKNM

T2: mouse tissue factor pathway inhibitor (TFPI) (mouse, UniProt O54819 29-289, limits assumed)
T2 construct: bought; also called mTFPI; murine TFPI
T2 sequence (looked up): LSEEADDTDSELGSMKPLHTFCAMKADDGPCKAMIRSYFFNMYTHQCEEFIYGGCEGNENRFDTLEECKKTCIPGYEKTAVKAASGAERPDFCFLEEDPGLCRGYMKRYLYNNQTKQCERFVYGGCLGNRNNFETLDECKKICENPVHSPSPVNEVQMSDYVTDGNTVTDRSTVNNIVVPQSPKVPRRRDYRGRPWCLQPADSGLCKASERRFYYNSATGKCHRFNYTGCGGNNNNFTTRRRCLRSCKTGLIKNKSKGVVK


Experiments:
[1] = target: T1, human tissue factor pathway inhibitor …; assay: competitive ELISA
[2] = target: T2, mouse tissue factor pathway inhibitor …; assay: competitive ELISA

variant/HC_K99L [1] | variant/HC_K99L [2] | Binder
16 ratio | 14.7 ratio | 2A8 HC G33A+S35D+S55R+K99L/LC Y48F+N51V+D91W (Fab, V domains shown) VH: QVQLVESGGGLVQPGGSLRLSCAASGFTFRSYAMDWVRQAPGKGLEWVSSIRGSRSSTYYADSVKGRFTISRDNSKNTLYLQMNSLRAEDTAVYYCARLYRYWFDYWGQGTLVTVSS VL: DIELTQPPSVSVAPGQTARISCSGDNLRNYYAHWYQQKPGQAPVVVIFYDVNRPSGIPERFSGSNSGNTATLTISGTQAEDEADYYCQSWWDGVPVFGGGTKLTVLG
22.5 ratio | 5.9 ratio | 2A8 HC S31V+G33P+S35D/LC Y48F+D91L+V96W (Fab, V domains shown) VH: QVQLVESGGGLVQPGGSLRLSCAASGFTFRVYPMDWVRQAPGKGLEWVSSIRGSSSSTYYADSVKGRFTISRDNSKNTLYLQMNSLRAEDTAVYYCARKYRYWFDYWGQGTLVTVSS VL: DIELTQPPSVSVAPGQTARISCSGDNLRNYYAHWYQQKPGQAPVVVIFYDNNRPSGIPERFSGSNSGNTATLTISGTQAEDEADYYCQSWLDGVPWFGGGTKLTVLG
12.1 ratio | 7.7 ratio | 2A8 HC Q1E+S31V+S50A+I51D+S55R+S56G+K99V/LC Y48F+D91L+V96W (Fab, V domains shown) VH: EVQLVESGGGLVQPGGSLRLSCAASGFTFRVYGMSWVRQAPGKGLEWVSADRGSRGSTYYADSVKGRFTISRDNSKNTLYLQMNSLRAEDTAVYYCARVYRYWFDYWGQGTLVTVSS VL: DIELTQPPSVSVAPGQTARISCSGDNLRNYYAHWYQQKPGQAPVVVIFYDNNRPSGIPERFSGSNSGNTATLTISGTQAEDEADYYCQSWLDGVPWFGGGTKLTVLG
19.6 ratio | 18.1 ratio | 2A8 HC M34I+S35D+S55R+K99L/LC Y48F+N51V+D91W (Fab, V domains shown) VH: QVQLVESGGGLVQPGGSLRLSCAASGFTFRSYGIDWVRQAPGKGLEWVSSIRGSRSSTYYADSVKGRFTISRDNSKNTLYLQMNSLRAEDTAVYYCARLYRYWFDYWGQGTLVTVSS VL: DIELTQPPSVSVAPGQTARISCSGDNLRNYYAHWYQQKPGQAPVVVIFYDVNRPSGIPERFSGSNSGNTATLTISGTQAEDEADYYCQSWWDGVPVFGGGTKLTVLG
6.6 ratio | 5.9 ratio | 2A8 HC S31V+G33P+I51D+S54F+K99V/LC Y48F+N51V+D91W (Fab, V domains shown) VH: QVQLVESGGGLVQPGGSLRLSCAASGFTFRVYPMSWVRQAPGKGLEWVSSDRGFSSSTYYADSVKGRFTISRDNSKNTLYLQMNSLRAEDTAVYYCARVYRYWFDYWGQGTLVTVSS VL: DIELTQPPSVSVAPGQTARISCSGDNLRNYYAHWYQQKPGQAPVVVIFYDVNRPSGIPERFSGSNSGNTATLTISGTQAEDEADYYCQSWWDGVPVFGGGTKLTVLG
6.2 ratio | 2.3 ratio | 2A8 HC G33P+S35D+S54F+K99L/LC Y48F+N52G (Fab, V domains shown) VH: QVQLVESGGGLVQPGGSLRLSCAASGFTFRSYPMDWVRQAPGKGLEWVSSIRGFSSSTYYADSVKGRFTISRDNSKNTLYLQMNSLRAEDTAVYYCARLYRYWFDYWGQGTLVTVSS VL: DIELTQPPSVSVAPGQTARISCSGDNLRNYYAHWYQQKPGQAPVVVIFYDNGRPSGIPERFSGSNSGNTATLTISGTQAEDEADYYCQSWDDGVPVFGGGTKLTVLG
20.9 ratio | 20.3 ratio | 2A8 HC Q1E+S35D+S55R+K99L/LC Y48F+N51V+D91W (Fab, V domains shown) VH: EVQLVESGGGLVQPGGSLRLSCAASGFTFRSYGMDWVRQAPGKGLEWVSSIRGSRSSTYYADSVKGRFTISRDNSKNTLYLQMNSLRAEDTAVYYCARLYRYWFDYWGQGTLVTVSS VL: DIELTQPPSVSVAPGQTARISCSGDNLRNYYAHWYQQKPGQAPVVVIFYDVNRPSGIPERFSGSNSGNTATLTISGTQAEDEADYYCQSWWDGVPVFGGGTKLTVLG
8.1 ratio | 2.2 ratio | 2A8 HC S31V+I51D+S54F+K99V/LC Y48F+N51V (Fab, V domains shown) VH: QVQLVESGGGLVQPGGSLRLSCAASGFTFRVYGMSWVRQAPGKGLEWVSSDRGFSSSTYYADSVKGRFTISRDNSKNTLYLQMNSLRAEDTAVYYCARVYRYWFDYWGQGTLVTVSS VL: DIELTQPPSVSVAPGQTARISCSGDNLRNYYAHWYQQKPGQAPVVVIFYDVNRPSGIPERFSGSNSGNTATLTISGTQAEDEADYYCQSWDDGVPVFGGGTKLTVLG
11.9 ratio | 9.3 ratio | 2A8 HC Q1E+R30S+S35D+S55R+S56G+K99L/LC Y48F+N51V+D91W (Fab, V domains shown) VH: EVQLVESGGGLVQPGGSLRLSCAASGFTFSSYGMDWVRQAPGKGLEWVSSIRGSRGSTYYADSVKGRFTISRDNSKNTLYLQMNSLRAEDTAVYYCARLYRYWFDYWGQGTLVTVSS VL: DIELTQPPSVSVAPGQTARISCSGDNLRNYYAHWYQQKPGQAPVVVIFYDVNRPSGIPERFSGSNSGNTATLTISGTQAEDEADYYCQSWWDGVPVFGGGTKLTVLG
6.2 ratio | 5.3 ratio | 2A8 HC I51D+S54F+K99L/LC D91W (Fab, V domains shown) VH: QVQLVESGGGLVQPGGSLRLSCAASGFTFRSYGMSWVRQAPGKGLEWVSSDRGFSSSTYYADSVKGRFTISRDNSKNTLYLQMNSLRAEDTAVYYCARLYRYWFDYWGQGTLVTVSS VL: DIELTQPPSVSVAPGQTARISCSGDNLRNYYAHWYQQKPGQAPVVVIYYDNNRPSGIPERFSGSNSGNTATLTISGTQAEDEADYYCQSWWDGVPVFGGGTKLTVLG
9 ratio | 4.7 ratio | 2A8 HC S31V+G33A+I51D+S55R+K99V/LC Y48F+D91L+V96W (Fab, V domains shown) VH: QVQLVESGGGLVQPGGSLRLSCAASGFTFRVYAMSWVRQAPGKGLEWVSSDRGSRSSTYYADSVKGRFTISRDNSKNTLYLQMNSLRAEDTAVYYCARVYRYWFDYWGQGTLVTVSS VL: DIELTQPPSVSVAPGQTARISCSGDNLRNYYAHWYQQKPGQAPVVVIFYDNNRPSGIPERFSGSNSGNTATLTISGTQAEDEADYYCQSWLDGVPWFGGGTKLTVLG
12.2 ratio | 11.7 ratio | 2A8 HC S31V+G33P+S35D/LC Y48F+N51V+D91L (Fab, V domains shown) VH: QVQLVESGGGLVQPGGSLRLSCAASGFTFRVYPMDWVRQAPGKGLEWVSSIRGSSSSTYYADSVKGRFTISRDNSKNTLYLQMNSLRAEDTAVYYCARKYRYWFDYWGQGTLVTVSS VL: DIELTQPPSVSVAPGQTARISCSGDNLRNYYAHWYQQKPGQAPVVVIFYDVNRPSGIPERFSGSNSGNTATLTISGTQAEDEADYYCQSWLDGVPVFGGGTKLTVLG
13.5 ratio | 6.5 ratio | 2A8 HC R30S+S31V+I51D+S55R+K99V/LC Y48F+D91L+V96W (Fab, V domains shown) VH: QVQLVESGGGLVQPGGSLRLSCAASGFTFSVYGMSWVRQAPGKGLEWVSSDRGSRSSTYYADSVKGRFTISRDNSKNTLYLQMNSLRAEDTAVYYCARVYRYWFDYWGQGTLVTVSS VL: DIELTQPPSVSVAPGQTARISCSGDNLRNYYAHWYQQKPGQAPVVVIFYDNNRPSGIPERFSGSNSGNTATLTISGTQAEDEADYYCQSWLDGVPWFGGGTKLTVLG
0.4 ratio | 0.1 ratio | 2A8 HC S31V+I51D+S55R+K99L/LC Y48F+N52G+D91L+V96W (Fab, V domains shown) VH: QVQLVESGGGLVQPGGSLRLSCAASGFTFRVYGMSWVRQAPGKGLEWVSSDRGSRSSTYYADSVKGRFTISRDNSKNTLYLQMNSLRAEDTAVYYCARLYRYWFDYWGQGTLVTVSS VL: DIELTQPPSVSVAPGQTARISCSGDNLRNYYAHWYQQKPGQAPVVVIFYDNGRPSGIPERFSGSNSGNTATLTISGTQAEDEADYYCQSWLDGVPWFGGGTKLTVLG
0.6 ratio | 0.4 ratio | 2A8 HC G33P+I51D+S54F/LC Y48F+N51V+V96W (Fab, V domains shown) VH: QVQLVESGGGLVQPGGSLRLSCAASGFTFRSYPMSWVRQAPGKGLEWVSSDRGFSSSTYYADSVKGRFTISRDNSKNTLYLQMNSLRAEDTAVYYCARKYRYWFDYWGQGTLVTVSS VL: DIELTQPPSVSVAPGQTARISCSGDNLRNYYAHWYQQKPGQAPVVVIFYDVNRPSGIPERFSGSNSGNTATLTISGTQAEDEADYYCQSWDDGVPWFGGGTKLTVLG
13.6 ratio | 10.6 ratio | 2A8 HC Q1E+R30S+S35D+S55G+S56G+K99L/LC Y48F+D91L+V96W (Fab, V domains shown) VH: EVQLVESGGGLVQPGGSLRLSCAASGFTFSSYGMDWVRQAPGKGLEWVSSIRGSGGSTYYADSVKGRFTISRDNSKNTLYLQMNSLRAEDTAVYYCARLYRYWFDYWGQGTLVTVSS VL: DIELTQPPSVSVAPGQTARISCSGDNLRNYYAHWYQQKPGQAPVVVIFYDNNRPSGIPERFSGSNSGNTATLTISGTQAEDEADYYCQSWLDGVPWFGGGTKLTVLG
11.7 ratio | 7.9 ratio | 2A8 HC S31V+I51D+R52S+S55R+K99V/LC Y48F+D91L+V96W (Fab, V domains shown) VH: QVQLVESGGGLVQPGGSLRLSCAASGFTFRVYGMSWVRQAPGKGLEWVSSDSGSRSSTYYADSVKGRFTISRDNSKNTLYLQMNSLRAEDTAVYYCARVYRYWFDYWGQGTLVTVSS VL: DIELTQPPSVSVAPGQTARISCSGDNLRNYYAHWYQQKPGQAPVVVIFYDNNRPSGIPERFSGSNSGNTATLTISGTQAEDEADYYCQSWLDGVPWFGGGTKLTVLG
17.9 ratio | 19.1 ratio | 2A8 HC R30S+S35D+S55R+K99L/LC Y48F+N51V+D91W (Fab, V domains shown) VH: QVQLVESGGGLVQPGGSLRLSCAASGFTFSSYGMDWVRQAPGKGLEWVSSIRGSRSSTYYADSVKGRFTISRDNSKNTLYLQMNSLRAEDTAVYYCARLYRYWFDYWGQGTLVTVSS VL: DIELTQPPSVSVAPGQTARISCSGDNLRNYYAHWYQQKPGQAPVVVIFYDVNRPSGIPERFSGSNSGNTATLTISGTQAEDEADYYCQSWWDGVPVFGGGTKLTVLG
11.2 ratio | 11.6 ratio | 2A8 HC M34K+S35D+S55R+K99L/LC Y48F+N51V+D91W (Fab, V domains shown) VH: QVQLVESGGGLVQPGGSLRLSCAASGFTFRSYGKDWVRQAPGKGLEWVSSIRGSRSSTYYADSVKGRFTISRDNSKNTLYLQMNSLRAEDTAVYYCARLYRYWFDYWGQGTLVTVSS VL: DIELTQPPSVSVAPGQTARISCSGDNLRNYYAHWYQQKPGQAPVVVIFYDVNRPSGIPERFSGSNSGNTATLTISGTQAEDEADYYCQSWWDGVPVFGGGTKLTVLG
